Data on two molecules can be found in patent US20230304075, “NUCLEIC ACID-BASED BIOSENSOR AND ASSOCIATED METHODS” (FACible BioDiagnostics LLC, published 2023).

In series [1] the target is SARS-CoV-2 spike S2 protein (SARS-CoV-2, UniProt P0DTC2 P0DTC2:686-1213).
The target in series [2] is SARS-CoV-2 spike S1 protein (SARS-CoV-2, UniProt P0DTC2 P0DTC2:14-685).

B1: Rho94 (DAF2-30e-17) (ssRNA)
RNA: GGUAGCCCUGCCCGGUGUACCUGAGCCUAGCUCAACGACUCGCUUCGGCGAUGAUGGAGAGGCGCAAGGUUAACCGCCUCAGUCGAAUGGGUACACCUGGCAGUCCGGACAUGCAU
For B1, the binding result in series [1] was “binds”; in series [2], “no binding”.

B2: Rho91 (DAF1-4560c-17) (ssRNA)
RNA: GGCGAUGCUAGGCUACGACUAGGCCUGAGAAUACUAGUCAAAGACGAUCGCUCGCUUCGGCGAUGAUGGAGAGGCGCAAGGUUAACCGCCUCAGCGUUCAAGCAAAAGAACCCUGUUUGGCUCACCGGGUCCUGCGCAU
For B2, the binding result is “binds” in series [1] and “no binding” in series [2].
